Results on two molecules are retold here after patent publication US20240166739A1 (KISOJI BIOTECHNOLOGY, published 2024).

Experiment [1] concerns the target T1, recombinant human PD-1 protein (human, UniProt Q15116 25-167).
T1 construct: Bought protein; also called human recombinant PD1 protein; PD-1 recombinant protein
The experiment can be described thus: ELISA on coated recombinant PD-1, anti-human-Fc-HRP detection. On the procedure:
(§1) The binding of binding agents comprising anti-PD-1 and -CD47 antigen binding domain to recombinant human or cynomolgous PD-1 (Cedarlane, Cat. No. HPLC-10377-H08H-100) or recombinant human or cynomolgous CD47 (Cedarlane, Cat. No. 12283-H08H-200 and 90869-C08H) was assessed by ELISA (FIG. 9A, FIG. 9B, FIG. 9C, FIG. 9D, FIG. 22, FIG. 23). […] The monoclonal anti-CD47 antibody (clone B6H12) was used as a positive control in CD47 binding assays (Biolegend, Cat. No. 401401).
(§2) Briefly, recombinant proteins were coated on 96-well plates. Plates were covered and left at 4° C. overnight. The next day, plates were washed once with PBS and blocked with blocking buffer for 1 hour at room temperature. Binding agents were tested at the indicated concentration, diluted in the blocking buffer, and incubated for 1 hour at 37° C. After incubation, plates were washed three times with washing buffer. Plates were incubated with anti-human-Fc-HRP (Sigma-Aldrich, Cat. No. APi 13P) diluted at 1:5000 for 1 hour at room temperature, then washed three times with PBS-T washing buffer. The signal was developed with SuperSignal™ ELISA Pico Chemiluminescent Substrate (Thermofisher, Cat. No. 37069). The plates were read on a SpectraMax™ i3x Multi-Mode Microplate Reader (Molecular Devices).

In experiment [2] the target is T2, human PD-1 on CHO-PD1 cells (human, UniProt Q15116 25-288).
T2 construct: whole, on cells; also called CHO-PD-1 cell line
The experiment can be described thus: Flow cytometry, 20 µg/mL, CHO-PD1 against CHO parental cells (FIG. 10).
Experimental: The binding of binding agents to cells was assessed by flow cytometry. […] Binding agents comprising anti-PD-1 antigen binding domain, were diluted in FACS staining buffer to 20 μg/mL and added and incubated with cells for 30 minutes on ice. The PD-1 antibody (clone EH12.2H7, Biolegend) was used as a positive control.

The target in experiment [3] is T1, recombinant human PD-1 protein. The experiment can be described thus: ELISA on coated recombinant PD-1 (FIG. 9A). On the procedure:
as §1, §2

T1 sequence (Q15116 25-167 limits assumed): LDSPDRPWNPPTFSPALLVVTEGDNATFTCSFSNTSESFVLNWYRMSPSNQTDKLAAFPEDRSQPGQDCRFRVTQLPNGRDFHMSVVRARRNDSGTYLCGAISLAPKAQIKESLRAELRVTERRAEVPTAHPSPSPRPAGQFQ
T2 sequence (Q15116 25-288): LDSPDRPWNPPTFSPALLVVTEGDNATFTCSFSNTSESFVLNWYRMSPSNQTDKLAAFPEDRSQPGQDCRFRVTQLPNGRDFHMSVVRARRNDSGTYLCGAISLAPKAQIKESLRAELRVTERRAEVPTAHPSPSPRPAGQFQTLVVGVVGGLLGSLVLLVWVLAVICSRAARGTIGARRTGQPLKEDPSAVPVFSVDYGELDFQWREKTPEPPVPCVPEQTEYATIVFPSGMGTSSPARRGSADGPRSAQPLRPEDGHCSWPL

B1: KC035 (HEWL; HEWL; HEWL negative control binding agent) (Fc fusion)
chain: QVQLVESGGGSVQAGGSLRLSCAASGSTDSIEYMTWFRQAPGKAREGVAALYTHTGNTYYTDSVKGRFTISQDKAKNMAYLRMDSVKSEDTAIYTCGATRKYVPVRFALDQSSYDYWGQGTQVTVSSEPKSCDKTHTCPPCPAPELLGGPSVFLFPPKPKDTLMISRTPEVTCVVVDVSHEDPEVKFNWYVDGVEVHNAKTKPREEQYNSTYRVVSVLTVLHQDWLNGKEYKCKVSNKALPAPIEKTISKAKGQPREPQVYTLPPSREQMTKNQVSLTCLVKGFYPSDIAVEWESNGQPENNYKTTPPVLNSDGSFFLYSKLTVDKSRWQQGNVFSCSVMHEALHNHYTQESLSLSPGKAPAPAPAPAPKAQVQLVESGGGSVQAGGSLRLSCAASGSTDSIEYMTWFRQAPGKAREGVAALYTHTGNTYYTDSVKGRFTISQDKAKNMAYLRMDSVKSEDTAIYTCGATRKYVPVRFALDQSSYDYWGQGTQVTVSSGGGGSGGGGSGGGGSQVQLVESGGGSVQAGGSLRLSCAASGSTDSIEYMTWFRQAPGKAREGVAALYTHTGNTYYTDSVKGRFTISQDKAKNMAYLRMDSVKSEDTAIYTCGATRKYVPVRFALDQSSYDYWGQGTQVTVSS
notes: Three anti-HEWL VHHs in the VHH-Fc-VHH-VHH format; negative control for KC036
Take B1: in experiment [1], the binding result is recorded as “no binding”.

B2: KC036 (PD-1-specific binding agent; HEWL; PD1; HEWL) (Fc fusion)
chain: QVQLVESGGGSVQAGGSLRLSCAASGSTDSIEYMTWFRQAPGKAREGVAALYTHTGNTYYTDSVKGRFTISQDKAKNMAYLRMDSVKSEDTAIYTCGATRKYVPVRFALDQSSYDYWGQGTQVTVSSEPKSCDKTHTCPPCPAPELLGGPSVFLFPPKPKDTLMISRTPEVTCVVVDVSHEDPEVKFNWYVDGVEVHNAKTKPREEQYNSTYRVVSVLTVLHQDWLNGKEYKCKVSNKALPAPIEKTISKAKGQPREPQVYTLPPSREQMTKNQVSLTCLVKGFYPSDIAVEWESNGQPENNYKTTPPVLNSDGSFFLYSKLTVDKSRWQQGNVFSCSVMHEALHNHYTQESLSLSPGKAPAPAPAPAPKAQVQLQESGGGWVQPGGSLRLSCVASGFTFSRSSMSWHRQAPGKERDLVAIISSSGIITHYSDSVKGRFTISRDNAKDTVYLQMNSLKPEDTAVYVCNAVLDDDSGDYWGQGTQVTVSSGGGGSGGGGSGGGGSQVQLVESGGGSVQAGGSLRLSCAASGSTDSIEYMTWFRQAPGKAREGVAALYTHTGNTYYTDSVKGRFTISQDKAKNMAYLRMDSVKSEDTAIYTCGATRKYVPVRFALDQSSYDYWGQGTQVTVSS
notes: Anti-HEWL VHH - IgG1 hinge-CH2-mutated CH3 - rigid linker - KC009 anti-PD-1 VHH - (G4S)3 - anti-HEWL VHH; expressed as dimer; may comprise a His-tag or not
Take B2: the binding result in experiment [2] and in experiment [3] was “binds” in each case.
